Test results from patent US20160272683A1 (Novo Nordisk, published 2016).
Numbered stars: 1 amine (or outer) side, 2 acyl side, 3 side chain; on linkers, the order of the positions; unused ones are H or OH. * marks the point of attachment. C20 diacid = O=C(O)CCCCCCCCCCCCCCCCCCC(=O)*; C18 diacid = O=C(O)CCCCCCCCCCCCCCCCC(=O)*; γGlu = O=C(O)[C@H](CCC(=O)[*:2])N[*:1]

T1: human calcitonin receptor (human, UniProt P30988 25-474)
T1 construct: whole, on cells; also called hCT-R; hCTR
T1 sequence (looked up): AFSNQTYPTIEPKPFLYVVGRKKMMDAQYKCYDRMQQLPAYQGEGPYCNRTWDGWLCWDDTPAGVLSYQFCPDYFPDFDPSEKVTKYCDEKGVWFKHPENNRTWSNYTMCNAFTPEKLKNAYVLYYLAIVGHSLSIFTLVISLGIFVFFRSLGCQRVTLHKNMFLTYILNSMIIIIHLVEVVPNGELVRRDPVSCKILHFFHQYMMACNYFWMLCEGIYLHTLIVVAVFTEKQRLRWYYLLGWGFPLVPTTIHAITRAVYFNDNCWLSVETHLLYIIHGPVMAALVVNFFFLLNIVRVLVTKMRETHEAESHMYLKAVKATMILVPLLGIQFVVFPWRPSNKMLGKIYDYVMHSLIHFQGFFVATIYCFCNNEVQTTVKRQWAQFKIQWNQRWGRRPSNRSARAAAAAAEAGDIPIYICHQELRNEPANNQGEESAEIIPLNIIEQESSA


Molecular target: T1, human calcitonin receptor
Assay: whole-cell competition vs 125I-human calcitonin (Assay VIIa)
Summary of the method: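 BHK tk'ts 13 cells stably co-expressing human calcitonin receptor and a CRE-luciferase reporter, seeded overnight at 37 °C. Bound tracer counted by scintillation after cold HBSS washes and NaOH/SDS lysis; IC₅₀ from one-site competition fit taken as receptor affinity.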

| Binder | IC50 |
| --- | --- |
| {C18 diacid-γGlu}-ASELSTAALGRLSAELHELATLPRTETGSGPP-NH2 (SMILES CC(C)C[C@H](NC(=O)[C@H](C)NC(=O)[C@H](C)NC(=O)[C@@H](NC(=O)[C@H](CO)NC(=O)[C@H](CC(C)C)NC(=O)[C@H](CCC(=O)O)NC(=O)[C@H](CO)NC(=O)[C@H](C)NC(=O)CC[C@H](NC(=O)CCCCCCCCCCCCCCCCC(=O)O)C(=O)O)[C@@H](C)O)C(=O)NCC(=O)N[C@@H](CCCNC(=N)N)C(=O)N[C@@H](CC(C)C)C(=O)N[C@@H](CO)C(=O)N[C@@H](C)C(=O)N[C@@H](CCC(=O)O)C(=O)N[C@@H](CC(C)C)C(=O)N[C@@H](Cc1c[nH]cn1)C(=O)N[C@@H](CCC(=O)O)C(=O)N[C@@H](CC(C)C)C(=O)N[C@@H](C)C(=O)N[C@H](C(=O)N[C@@H](CC(C)C)C(=O)N1CCC[C@H]1C(=O)N[C@@H](CCCNC(=N)N)C(=O)N[C@H](C(=O)N[C@@H](CCC(=O)O)C(=O)N[C@H](C(=O)NCC(=O)N[C@@H](CO)C(=O)NCC(=O)N1CCC[C@H]1C(=O)N1CCC[C@H]1C(N)=O)[C@@H](C)O)[C@@H](C)O)[C@@H](C)O, also called Ex. #75) [[N-terminal(C18 diacid-gGlu), des1, 30S, 31G, 32P]mimylin] | 20500 pM |
| {C20 diacid-γGlu}-ASELSTAALGHLSAELHELATLPHTETGTGTP-NH2 (SMILES CC(C)C[C@H](NC(=O)[C@H](C)NC(=O)[C@H](C)NC(=O)[C@@H](NC(=O)[C@H](CO)NC(=O)[C@H](CC(C)C)NC(=O)[C@H](CCC(=O)O)NC(=O)[C@H](CO)NC(=O)[C@H](C)NC(=O)CC[C@H](NC(=O)CCCCCCCCCCCCCCCCCCC(=O)O)C(=O)O)[C@@H](C)O)C(=O)NCC(=O)N[C@@H](Cc1c[nH]cn1)C(=O)N[C@@H](CC(C)C)C(=O)N[C@@H](CO)C(=O)N[C@@H](C)C(=O)N[C@@H](CCC(=O)O)C(=O)N[C@@H](CC(C)C)C(=O)N[C@@H](Cc1c[nH]cn1)C(=O)N[C@@H](CCC(=O)O)C(=O)N[C@@H](CC(C)C)C(=O)N[C@@H](C)C(=O)N[C@H](C(=O)N[C@@H](CC(C)C)C(=O)N1CCC[C@H]1C(=O)N[C@@H](Cc1c[nH]cn1)C(=O)N[C@H](C(=O)N[C@@H](CCC(=O)O)C(=O)N[C@H](C(=O)NCC(=O)N[C@H](C(=O)NCC(=O)N[C@H](C(=O)N1CCC[C@H]1C(N)=O)[C@@H](C)O)[C@@H](C)O)[C@@H](C)O)[C@@H](C)O)[C@@H](C)O, also called Ex. #93) [[N-terminal(C20 diacid-gGlu), des1, 12H, 25H, 30T, 31G, 32T]mimylin] | 1030 pM |
| {C20 diacid-γGlu}-ASELSTAALGRLSAELHELSTYPRTETGSGSY-NH2 (SMILES CC(C)C[C@H](NC(=O)[C@H](C)NC(=O)[C@H](C)NC(=O)[C@@H](NC(=O)[C@H](CO)NC(=O)[C@H](CC(C)C)NC(=O)[C@H](CCC(=O)O)NC(=O)[C@H](CO)NC(=O)[C@H](C)NC(=O)CC[C@H](NC(=O)CCCCCCCCCCCCCCCCCCC(=O)O)C(=O)O)[C@@H](C)O)C(=O)NCC(=O)N[C@@H](CCCNC(=N)N)C(=O)N[C@@H](CC(C)C)C(=O)N[C@@H](CO)C(=O)N[C@@H](C)C(=O)N[C@@H](CCC(=O)O)C(=O)N[C@@H](CC(C)C)C(=O)N[C@@H](Cc1c[nH]cn1)C(=O)N[C@@H](CCC(=O)O)C(=O)N[C@@H](CC(C)C)C(=O)N[C@@H](CO)C(=O)N[C@H](C(=O)N[C@@H](Cc1ccc(O)cc1)C(=O)N1CCC[C@H]1C(=O)N[C@@H](CCCNC(=N)N)C(=O)N[C@H](C(=O)N[C@@H](CCC(=O)O)C(=O)N[C@H](C(=O)NCC(=O)N[C@@H](CO)C(=O)NCC(=O)N[C@@H](CO)C(=O)N[C@@H](Cc1ccc(O)cc1)C(N)=O)[C@@H](C)O)[C@@H](C)O)[C@@H](C)O, also called Ex. #97) [[N-terminal(C20 diacid-gGlu), des1, 21S, 23Y, 30S, 31G, 33Y]mimylin] | 307 pM |
| {C20 diacid-γGlu}-ASGLSTAALGRLSAELHELATYPRTETGSGSP-NH2 (also called Ex. #79) [[N-terminal(C20 diacid-gGlu), des1, 4G, 23Y, 30S, 31G]mimylin] | 385 pM |
| {C20 diacid-γGlu}-ASELSTATLGRLSAELHELSTYPRTETGSGSP-NH2 (SMILES CC(C)C[C@H](NC(=O)[C@H](CCCNC(=N)N)NC(=O)CNC(=O)[C@H](CC(C)C)NC(=O)[C@@H](NC(=O)[C@H](C)NC(=O)[C@@H](NC(=O)[C@H](CO)NC(=O)[C@H](CC(C)C)NC(=O)[C@H](CCC(=O)O)NC(=O)[C@H](CO)NC(=O)[C@H](C)NC(=O)CC[C@H](NC(=O)CCCCCCCCCCCCCCCCCCC(=O)O)C(=O)O)[C@@H](C)O)[C@@H](C)O)C(=O)N[C@@H](CO)C(=O)N[C@@H](C)C(=O)N[C@@H](CCC(=O)O)C(=O)N[C@@H](CC(C)C)C(=O)N[C@@H](Cc1c[nH]cn1)C(=O)N[C@@H](CCC(=O)O)C(=O)N[C@@H](CC(C)C)C(=O)N[C@@H](CO)C(=O)N[C@H](C(=O)N[C@@H](Cc1ccc(O)cc1)C(=O)N1CCC[C@H]1C(=O)N[C@@H](CCCNC(=N)N)C(=O)N[C@H](C(=O)N[C@@H](CCC(=O)O)C(=O)N[C@H](C(=O)NCC(=O)N[C@@H](CO)C(=O)NCC(=O)N[C@@H](CO)C(=O)N1CCC[C@H]1C(N)=O)[C@@H](C)O)[C@@H](C)O)[C@@H](C)O, also called Ex. #92) [[N-terminal(C20 diacid-gGlu), des1, 9T, 21S, 23Y, 30S, 31G]mimylin] | 2940 pM |
| {C20 diacid-γGlu}-ASELSTASLGRLSAELHELSTYPRTETGSGSY-NH2 (SMILES CC(C)C[C@H](NC(=O)[C@H](CO)NC(=O)[C@H](C)NC(=O)[C@@H](NC(=O)[C@H](CO)NC(=O)[C@H](CC(C)C)NC(=O)[C@H](CCC(=O)O)NC(=O)[C@H](CO)NC(=O)[C@H](C)NC(=O)CC[C@H](NC(=O)CCCCCCCCCCCCCCCCCCC(=O)O)C(=O)O)[C@@H](C)O)C(=O)NCC(=O)N[C@@H](CCCNC(=N)N)C(=O)N[C@@H](CC(C)C)C(=O)N[C@@H](CO)C(=O)N[C@@H](C)C(=O)N[C@@H](CCC(=O)O)C(=O)N[C@@H](CC(C)C)C(=O)N[C@@H](Cc1c[nH]cn1)C(=O)N[C@@H](CCC(=O)O)C(=O)N[C@@H](CC(C)C)C(=O)N[C@@H](CO)C(=O)N[C@H](C(=O)N[C@@H](Cc1ccc(O)cc1)C(=O)N1CCC[C@H]1C(=O)N[C@@H](CCCNC(=N)N)C(=O)N[C@H](C(=O)N[C@@H](CCC(=O)O)C(=O)N[C@H](C(=O)NCC(=O)N[C@@H](CO)C(=O)NCC(=O)N[C@@H](CO)C(=O)N[C@@H](Cc1ccc(O)cc1)C(N)=O)[C@@H](C)O)[C@@H](C)O)[C@@H](C)O, also called Ex. #100) [[N-terminal(C20 diacid-gGlu), des1, 9S, 21S, 23Y, 30S, 31G, 33Y]mimylin] | 2820 pM |
| {C20 diacid-γGlu}-ASELSTAALGHLSAELHELATLPRTETGSGSP-NH2 (also called Ex. #72) [[N-terminal(C20 diacid-gGlu), des1, 12H, 30S, 31G]mimylin] | 438 pM |
| {C18 diacid-γGlu}-ASELSTAALGRLSAELHELATLPRTETGSESP-NH2 (SMILES CC(C)C[C@H](NC(=O)[C@H](C)NC(=O)[C@H](C)NC(=O)[C@@H](NC(=O)[C@H](CO)NC(=O)[C@H](CC(C)C)NC(=O)[C@H](CCC(=O)O)NC(=O)[C@H](CO)NC(=O)[C@H](C)NC(=O)CC[C@H](NC(=O)CCCCCCCCCCCCCCCCC(=O)O)C(=O)O)[C@@H](C)O)C(=O)NCC(=O)N[C@@H](CCCNC(=N)N)C(=O)N[C@@H](CC(C)C)C(=O)N[C@@H](CO)C(=O)N[C@@H](C)C(=O)N[C@@H](CCC(=O)O)C(=O)N[C@@H](CC(C)C)C(=O)N[C@@H](Cc1c[nH]cn1)C(=O)N[C@@H](CCC(=O)O)C(=O)N[C@@H](CC(C)C)C(=O)N[C@@H](C)C(=O)N[C@H](C(=O)N[C@@H](CC(C)C)C(=O)N1CCC[C@H]1C(=O)N[C@@H](CCCNC(=N)N)C(=O)N[C@H](C(=O)N[C@@H](CCC(=O)O)C(=O)N[C@H](C(=O)NCC(=O)N[C@@H](CO)C(=O)N[C@@H](CCC(=O)O)C(=O)N[C@@H](CO)C(=O)N1CCC[C@H]1C(N)=O)[C@@H](C)O)[C@@H](C)O)[C@@H](C)O, also called Ex. #23) [[N-terminal(C18 diacid-gGlu), des1, 30S]mimylin] | 541 pM |
| {C20 diacid-γGlu}-ASELSTAALGKLSAELHELATYPKTETGSGSY-NH2 (SMILES CC(C)C[C@H](NC(=O)[C@H](C)NC(=O)[C@H](C)NC(=O)[C@@H](NC(=O)[C@H](CO)NC(=O)[C@H](CC(C)C)NC(=O)[C@H](CCC(=O)O)NC(=O)[C@H](CO)NC(=O)[C@H](C)NC(=O)CC[C@H](NC(=O)CCCCCCCCCCCCCCCCCCC(=O)O)C(=O)O)[C@@H](C)O)C(=O)NCC(=O)N[C@@H](CCCCN)C(=O)N[C@@H](CC(C)C)C(=O)N[C@@H](CO)C(=O)N[C@@H](C)C(=O)N[C@@H](CCC(=O)O)C(=O)N[C@@H](CC(C)C)C(=O)N[C@@H](Cc1c[nH]cn1)C(=O)N[C@@H](CCC(=O)O)C(=O)N[C@@H](CC(C)C)C(=O)N[C@@H](C)C(=O)N[C@H](C(=O)N[C@@H](Cc1ccc(O)cc1)C(=O)N1CCC[C@H]1C(=O)N[C@@H](CCCCN)C(=O)N[C@H](C(=O)N[C@@H](CCC(=O)O)C(=O)N[C@H](C(=O)NCC(=O)N[C@@H](CO)C(=O)NCC(=O)N[C@@H](CO)C(=O)N[C@@H](Cc1ccc(O)cc1)C(N)=O)[C@@H](C)O)[C@@H](C)O)[C@@H](C)O, also called Ex. #101) [[N-terminal(C20 diacid-gGlu), des1, 12K, 23Y, 25K, 30S, 31G, 33Y]mimylin] | 628 pM |
